Results: US20240092920A1 (KEYMED BIOSCIENCES, published 2024)

T1: recombinant protein of human IL-4Rα extracellular region (human, UniProt P24394 26-232)
T1 construct: range 26-232; Made in HEK293-6E cells, purified on nickel chelate; Used biotin-labeled on SA probes in the Fortebio assays and unlabeled as ELISA coat; also called hIL-4Rα; IL-4Rα recombinant protein
T1 sequence: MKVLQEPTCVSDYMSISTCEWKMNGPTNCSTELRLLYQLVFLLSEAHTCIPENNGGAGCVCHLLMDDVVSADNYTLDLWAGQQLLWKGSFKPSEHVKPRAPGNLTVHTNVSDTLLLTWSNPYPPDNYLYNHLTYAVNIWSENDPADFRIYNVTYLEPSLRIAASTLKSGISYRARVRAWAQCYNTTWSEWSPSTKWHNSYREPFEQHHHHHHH


The binders below were run against T1, recombinant protein of human IL-4Rα … (assay: BLI (Fortebio), biotin-labeled hIL-4Rα on SA probe, antibody 50-3.125 ug/ml).
Procedure: PBS is added to any column of the 96-well plate, 100 ul/well, and the 96-well plate is placed in the probe holder cassette. When taking the probe, be careful to completely hang it on the holder to prevent the probe from touching the holder. The immobilized biotin-labeled hIL-4Rα is diluted to 5 ug/ml with PBS; a new 96-well plate is taken, and the diluted immobilized material is added column by column, 100 ul/well. […] A new 96-well plate is taken, and PBS is added to columns 1 and 2, 100 ul/well (the same buffer for both baseline and dissociation); the diluted immobilized material is added to column 3; the analyte diluted according to the series is added to column 4; 10 mM HCl (pH 1.9) is added to column 11; and PBS is added to column 12. The SA probe binds very strongly to the immobilized biotin material. When regenerated, the immobilized material is still bound to the probe, so it can be reused after immobilizing only once. Then the experimental method is set up in the Fortebio software, and then the experimental program is run for detection.

Row | Kd [nM] | koff [s⁻¹] | kon [M⁻¹ s⁻¹] | Binder
1 | 5.9 | 0.000157 | 26500 | Clone 25D6 (antibody, V domains shown, Chimeric IgG: mouse variable regions on human heavy and light chain constant regions (section 6)) VH: QVQLQQSGAELVKPGASVKMSCKASVNTFTGYNMHWVKQTPGQGLEWIGGLHPGNGDTSYNQKFKGKATLTADKSSNTAYMQLSSLTSEDSAVYYCALTTAGRAWFAYWGQGTLVTVSA VL: DIQMTQSTSSLSASLGDRVTISCRASQDISNYLNWYQQKPDGTVKLLIYYTSRLHSGVPSRFSGSGSGTDYSLTISNLEQEDIATYFCQQGNTLPWTFGGGTKLEIK
2 | 1.8 | 9.37e-05 | 50900 | Clone 36F4 (antibody, V domains shown, Chimeric IgG: mouse variable regions on human heavy and light chain constant regions (section 6)) VH: QVQLQQSGAELVKPGASVKMSCKASVNIFTGYNMHWVKQTPGQGLEWIGGLHPGNGDTSYNQKFKDKATLTADRSSNTAYMQLSSLTSEDSAVYYCALTTAGRAWFAYWGQGTLVTVSA VL: DIKMTQSTSSLSASLGDRVTISCRASQDISNYLNWYQQKPDGTVKLLIYYTSRLHSGVPSRFSGSGSGTDYSLTISNLEQEDIATYFCQQGNTLPPWTFGGGTKLEIK
3 | 8.06 | 0.000566 | 70100 | Clone 1D8 (antibody, V domains shown, Chimeric IgG: mouse variable regions on human heavy and light chain constant regions (section 6)) VH: QVQLQQSGAELVKPGASVKMSCTATGNIFTGYNMHWIKQTPGQGLEWIGGLHPGNGDTSYNQKFKGRATLTADKSSSSAYMQLSSLTSEDSAVYYCALTTAGRAWFAYWGQGTLVTVSA VL: DIQMTQTTSSLSASLGDRVTISCRASQDISNYLNWYQQKPDGTVKLLIYYTSRLHSGVPSRFSGSGSGTDYSLTISNLEQEDIATYFCQQGNTLHTFGGGTKLEIK
4 | 11.3 | 0.000602 | 53000 | Clone 1A6 (antibody, V domains shown, Chimeric IgG: mouse variable regions on human heavy and light chain constant regions (section 6)) VH: QVQLQQSGTELVKPGASVKMSCKASVNTFTGYNMHWIKQTPGQGLEWIGGLHPGNGDSSYNQKFKGRATLTADKSSNTAYMQLSSLTSEDSAVYYCALTTAGRAWFPYWGQGTLVTVSA VL: DIQMTQTTSSLSASLGDRVTISCRASQDISNYLNWYQQKPDGTVKLLIYYTSRLHSGVPSRFSGSGSGTDYSLTISNLEQEDIATYFCQQGNTLPPTFGGGTKLEIK
5 | < 0.001 | < 1e-07 | 29000 | Clone 34A2 (antibody, V domains shown, Chimeric IgG: mouse variable regions on human heavy and light chain constant regions (section 6)) VH: EVQLQQSGAELVKPGASVKMSCKASVNIFTSYNMHWVKQTPGQGLEWIGGLHPGNGDTSYNQNFKGKATLTADKSSSTAYMQVSNLTSEDSAVYYCVLTTAGRAWFAYWGQGTLVTVSA VL: DIQMTQSTSSLSASLGDRVTISCRASQDISNYLNWYQQKPDGTVKLLIYYTSRLHSGVPSRFSGSGSGTDYSLTISNLEQEDIATYFCQQGNTLPWTFGGGTKLEIK
6 | 8.9 | 0.000262 | 29300 | Clone 1H9 (antibody, V domains shown, Chimeric IgG: mouse variable regions on human heavy and light chain constant regions (section 6)) VH: QVQLQQSGAELVKPGASVKMSCKASVNTFAGYNMHWVKQTPGQGLEWIGGLHPGNGDTSYNQKFKGKATLTADKSSNTAYMQLSSLTSEDSAVYYCALTTAGRAWFAYWGQGTLVTVSA VL: DIQMIQSTSSLSASLGDRVTISCRASQDISNYLNWYQQKPDGTVKLLIYYTSRLHSGVPSRFSGSGSGTDYSLTISNLEQEDIATYFCQQGNTLPWTFGGGTKLEIK
7 | 5.27 | 0.000377 | 71600 | Clone 2H1 (antibody, V domains shown, Chimeric IgG: mouse variable regions on human heavy and light chain constant regions (section 6)) VH: QVQLQQSGTELVKPGASVKMSCKASVNTFTGYNMHWIKQTPGQGLEWIGGLHPGNGDSSYNQKFKGRATLTADKSSNTAYMQLSSLTSEDSAVYYCALTTAGRAWFPYWGQGTLVTVSA VL: DIQMIQSTSSLSASLGDRVTISCRASQDISNYLNWYQQKPDGTVKLLIYYTSRLHSGVPSRFRGSGSGTDYSLTISNLEQEDIATYFCQQGNTLPLTFGAGTKLELK
8 | 1.9 | 6.28e-05 | 33000 | Clone 31B9 (antibody, V domains shown, Chimeric IgG: mouse variable regions on human heavy and light chain constant regions (section 6)) VH: EVQLQQSGAELVKPGASVKMSCKASVNIFTGYNMHWVKQTPGQGLEWIGGLHPGNGDTSYNQKFKDKATLTADRSSNTAYMQLSSLTSEDSAVYYCALTTAGRAWFAYWGQGTLVTVSA VL: DIQMTQSTSSLSASLGDRVTISCRASQDISNYLNWYQQKPDGTVKLLIYYTSRLHSGVPSRFSGSGSGTDYSLTISNLEQEDIATYFCQQGNTLPWTFGGGTKLEIK
9 | < 0.001 | < 1e-07 | 24700 | Clone 35A7 (antibody, V domains shown, Chimeric IgG (section 6)) VH: QVQLKQSGAELVKPGASVKMSCTASGNIFSGYNMHWIKQTPGQGLEWIGGLHPGNGDTSYNQKFKGKATLTADKSSNTAYMQLSSLTSEDSAVYYCALTTAGRAWFAYWGQGTLVTVSA VL: DIQMNQSTSSLSASLGDRVTISCRASQDISNYLNWYQQKPDGTIKLLIYYTSRLYSGVPSRFSGSGSGTDYSLTISNLEEEDIATYFCQQGNTIPYTFGGGTKLEIK
10 | 6.6 | 0.000176 | 26900 | Clone 34H11 (antibody, V domains shown, Chimeric IgG: mouse variable regions on human heavy and light chain constant regions (section 6)) VH: QVQLQESGAELVKPGASVKMSCKASVNTFTGYNMHWVKQTPGQGLEWIGGLHPGNGDTSYNQKFKGKATLTADKSSNTAYMQLSSLTSEDSAVYYCALTTAGRAWFAYWGQGTLVTVSA VL: DIQMTQTTSSLSASLGDRVTISCRASQDISNYLNWYQQKPDGTVKLLIYYTSRLHSGVPSRFSGSGSGTDYSLTISNLEQEDVATYFCQQGNTLPWTFGGGTKLEIK
11 | < 0.001 | < 1e-07 | 37900 | Clone 25G9 (antibody, V domains shown, Chimeric IgG: mouse variable regions on human heavy and light chain constant regions (section 6)) VH: EVQLKESGAELVKPGASVKMSCKASVNIFTGYNMHWVKQTPGQGLEWIGGLHPGNGDTSYNQKFKDKATLTADRSSNTAYMQLSSLTSEDSAVYYCALTTAGRAWFAYWGQGTLVTVSA VL: DIQMTQSTSSLSASLGDRVTISCRASQDISNYLNWYQQKPDGTVKLLIYYTSRLHSGVPSRFSGSGSGTDYSLTISNLEQEDIATYFCQQGNTLPWTFGGGTRLEIK
12 | 1.3 | 5.05e-05 | 38700 | Clone 35D5 (antibody, V domains shown, Chimeric IgG: mouse variable regions on human heavy and light chain constant regions (section 6)) VH: QVQLKQSGAELVKPGASVKMSCKASVNTFTGYNMHWVKQTPGQGLEWIGGLHPGNGDTSYNQKFKGKATLTADKSSNTAYMQLSSLTSEDSAVYYCALTTAGRAWFAYWGQGTLVTVSA VL: DIQMTQSTSSLSASLGDRVTISCRASQDISNYLNWYQQKPDGTVKLLIYYTSRLHSGVPSRFSGSGSGTDYSLTISNLEQEDIATYFCQQGNTLPWTFGGGTKLEIK
13 | 0.94 | 2.37e-05 | 25300 | Clone 24G10 (antibody, V domains shown, Chimeric IgG: mouse variable regions on human heavy and light chain constant regions (section 6)) VH: EVKLVESGGGLVKPGGSLKLSCAASGFTFSRYAMSWVRQTPEKRLEWVATISSGGSYTNYSDSVKGRFTISRDNVKNTLYLQMSSLKSEDSAMYYCARATARATEFAYWGQGTLVTVSA VL: DIQMTQSTSSLSASLGDRVTISCRASQDISNYLNWYQQKPDGTVKLLIYYTSRLYSGVPSRFSGSGSGTDYSLTISNLEQEDIATYFCQQGNTLPPTFGGGTKLEI
